Measured values from the RNAGym collection of RNA variant scans (doi:10.7554/elife.90254).

B1: LINE1-full (parent)
chain: UACGUAGGUGGUUUUCCCCUGAUAGUGCUAAGGGGGCCUGGAAGUUUGGACUGGGCAGAGCUCAACACAGCGUGGCAAAGUGGCUGUGGCUAGACUGCCUCUCUGGAUUCCUCGUCACUCAGCAGGGCAUCUCUGAGAGAAAUGCC

Variants of: B1
Test: self-cleavage, relative activity (ratio to wild type); higher = more cleavage; in vitro, sequencing; the parent is a self-cleaving ribozyme

Compared with UACGUAGGUGGUUUUCCCCUGAUAGUGCUAAGGGGGCCUGGAAGUUUGGACUGGGCAGAGCUCAACACAGCGUGGCAAAGUGGCUGUGGCUAGACUGCCUCUCUUGAUUCCUCGUCACCCAGCAGGGCAUCUCUGAGAGAAAUGCC [G105U U119C], UACGUAGGUGGUUUUCCCCUGAUAGUGCUAAGGGGGCCUGGAAGUUUGGACUGGGCAGAGCUCAACACAGCGUGGCAAAGUGGCUGUGGCUAGACUGCCUCUCUAGAUCCCUCGUCACUCAGCAGGGCAUCUCUGAGAGAAAUGCC [G105A U109C] is lower in self-cleavage: 1.92 for the first, 1.46 for the second.

Compared with UACGUAGGUGGUUUUCCCCUGAUAGUGCUAAGGGGGCCUGGAAGUUUGGACUGGGCAGAGCUCAACACAGCGUGGCAAAGUGGCUGUGGCUAGACUGCCUCUCUAGAUUCCUCGUCACUCAGCAGGGCACCUCUGAGAGAAAUGCC [G105A U130C], UACGUAGGUGGUUUUCCCCUGAUAGUGCUAAGGGGGCCUGGAAGUUUGGACUGGGCAGAGCUCAACACAGCGUGGCAAAGUGGCUGUGGCUAGACUGCCUCUCCGGAUUCCUCGUCACACAGCAGGGCAUCUCUGAGAGAAAUGCC [U104C U119A] is higher in self-cleavage: 0.96 for the first, 2.16 for the second.

First: UACGUAGGUGGUUUUCCCCUGAUAGUGCUAAGGGGGCCUGGAAGUUUGGACUGGGCAGAGCUCAACACAGCGUGGCAAAGUGGCUGUGGCUAGACUGCCUCUCCGGAUUCCUCGUCACGCAGCAGGGCAUCUCUGAGAGAAAUGCC [U104C U119G]
Second: UACGUAGGUGGUUUUCCCCUGAUAGUGCUAAGGGGGCCUGGAAGUUUGGACUGGGCAGAGCUCAACACAGCGUGGCAAAGUGGCUGUGGCUAGACUGCCUCUCCGGAUUCCUCGUCACCCAGCAGGGCAUCUCUGAGAGAAAUGCC [U104C U119C]
The self-cleavage of the first is lower: 0 for the first, 1.96 for the second.

Compared with UACGUAGGUGGUUUUCCCCUGAUAGUGCUAAGGGGGCCUGGAAGUUUGGACUGGGCAGAGCUCAACACAGCGUGGCAAAGUGGCUGUGGCUAGACUGCCUCUCUAGAUUCCUCCUCACUCAGCAGGGCAUCUCUGAGAGAAAUGCC [G105A G114C], UACGUAGGUGGUUUUCCCCUGAUAGUGCUAAGGGGGCCUGGAAGUUUGGACUGGGCAGAGCUCAACACAGCGUGGCAAAGUGGCUGUGGCUAGACUGCCUCUCUAGAUUCCUCAUCACUCAGCAGGGCAUCUCUGAGAGAAAUGCC [G105A G114A] is lower in self-cleavage: 1.42 for the first, 0.75 for the second.

First: UACGUAGGUGGUUUUCCCCUGAUAGUGCUAAGGGGGCCUGGAAGUUUGGACUGGGCAGAGCUCAACACAGCGUGGCAAAGUGGCUGUGGCUAGACUGCCUCUCUUGAUUCCUCGUCACUCAGCAGGGCAUCUCUGGGAGAAAUGCC [G105U A136G]
Second: UACGUAGGUGGUUUUCCCCUGAUAGUGCUAAGGGGGCCUGGAAGUUUGGACUGGGCAGAGCUCAACACAGCGUGGCAAAGUGGCUGUGGCUAGACUGCCUCUCUAGACUCCUCGUCACUCAGCAGGGCAUCUCUGAGAGAAAUGCC [G105A U108C]
The self-cleavage of the first is lower: 1.47 for the first, 1.56 for the second.

Compared with UACGUAGGUGGUUUUCCCCUGAUAGUGCUAAGGGGGCCUGGAAGUUUGGACUGGGCAGAGCUCAACACAGCGUGGCAAAGUGGCUGUGGCUAGACUGCCUCUCCGGAUUCCUCGCCACUCAGCAGGGCAUCUCUGAGAGAAAUGCC [U104C U115C], UACGUAGGUGGUUUUCCCCUGAUAGUGCUAAGGGGGCCUGGAAGUUUGGACUGGGCAGAGCUCAACACAGCGUGGCAAAGUGGCUGUGGCUAGACUGCCUCUCUAGAUUCCUCGUCACUCAGCAGGGCAUCUCUGGGAGAAAUGCC [G105A A136G] is lower in self-cleavage: 1.92 for the first, 1.28 for the second.

Compared with UACGUAGGUGGUUUUCCCCUGAUAGUGCUAAGGGGGCCUGGAAGUUUGGACUGGGCAGAGCUCAACACAGCGUGGCAAAGUGGCUGUGGCUAGACUGCCUCUCUCGAUUCCUCGUCACUCAGCAGGGCAUCUCUGAGAGGAAUGCC [G105C A140G], UACGUAGGUGGUUUUCCCCUGAUAGUGCUAAGGGGGCCUGGAAGUUUGGACUGGGCAGAGCUCAACACAGCGUGGCAAAGUGGCUGUGGCUAGACUGCCUCUCCGGAUACCUCGUCACUCAGCAGGGCAUCUCUGAGAGAAAUGCC [U104C U109A] is lower in self-cleavage: 1.83 for the first, 0.65 for the second.

Compared with UACGUAGGUGGUUUUCCCCUGAUAGUGCUAAGGGGGCCUGGAAGUUUGGACUGGGCAGAGCUCAACACAGCGUGGCAAAGUGGCUGUGGCUAGACUGCCUCUCGGGAUUCCUUGUCACUCAGCAGGGCAUCUCUGAGAGAAAUGCC [U104G C113U], UACGUAGGUGGUUUUCCCCUGAUAGUGCUAAGGGGGCCUGGAAGUUUGGACUGGGCAGAGCUCAACACAGCGUGGCAAAGUGGCUGUGGCUAGACUGCCUCUCCGGACUCCUCGUCACUCAGCAGGGCAUCUCUGAGAGAAAUGCC [U104C U108C] is higher in self-cleavage: 0.83 for the first, 2.07 for the second.

Going from UACGUAGGUGGUUUUCCCCUGAUAGUGCUAAGGGGGCCUGGAAGUUUGGACUGGGCAGAGCUCAACACAGCGUGGCAAAGUGGCUGUGGCUAGACUGCCUCUCCGGAUUCCUCGUCACUCAGCAGGGCAUCCCUGAGAGAAAUGCC [U104C U132C] to UACGUAGGUGGUUUUCCCCUGAUAGUGCUAAGGGGGCCUGGAAGUUUGGACUGGGCAGAGCUCAACACAGCGUGGCAAAGUGGCUGUGGCUAGACUGCCUCUCCGGAUUCCUCGUCACUCAGCAGGGCAUCUCUGAGAGAAAUUCC [U104C G144U], the self-cleavage rises from 1.63 to 2.06.

Compared with UACGUAGGUGGUUUUCCCCUGAUAGUGCUAAGGGGGCCUGGAAGUUUGGACUGGGCAGAGCUCAACACAGCGUGGCAAAGUGGCUGUGGCUAGACUGCCUCUCCGGAUUCCGCGUCACUCAGCAGGGCAUCUCUGAGAGAAAUGCC [U104C U112G], UACGUAGGUGGUUUUCCCCUGAUAGUGCUAAGGGGGCCUGGAAGUUUGGACUGGGCAGAGCUCAACACAGCGUGGCAAAGUGGCUGUGGCUAGACUGCCUCUCCGGAUUCCACGUCACUCAGCAGGGCAUCUCUGAGAGAAAUGCC [U104C U112A] is higher in self-cleavage: 1.41 for the first, 1.8 for the second.
